Results: US20170008928A1, “NOVEL PEPTIDES AND PEPTIDE DERIVATIVES AND USES THEREOF” (Novo Nordisk A/S, priority 2015, published 2017)
Like-named read-outs stand apart in the source and are kept apart here. Starred links: 1 amine or outer side, 2 acyl side, 3 side chain; linkers in the order of their positions; H or OH if unused. Non-standard residues stand in square brackets, D forms with d. Residues, ends and D or L forms follow the SMILES beside them. No end group written: not given here. *: point of attachment. sY = N[C@@H](Cc1ccc(OS(=O)(=O)O)cc1)C(=O)O; C18 diacid = O=C(O)CCCCCCCCCCCCCCCCC(=O)*; C16 diacid = O=C(O)CCCCCCCCCCCCCCC(=O)*; γGlu = O=C(O)[C@H](CCC(=O)[*:2])N[*:1]; C14 diacid = O=C(O)CCCCCCCCCCCCC(=O)*; NMeF = CN[C@@H](Cc1ccccc1)C(=O)O; dNMeD = CN[C@H](CC(=O)O)C(=O)O; Nle = CCCC[C@H](N)C(=O)O; AEEA = NCCOCCOCC(=O)O

B1: Glu-sTyr-Leu-Gly-Trp-Nle-DMeAsp-Phe-amide (peptide)
peptide: E[sY]LGW[Nle][dNMeD]F-NH2
modifications: N-terminus assumed
SMILES: CCCC[C@H](NC(=O)[C@H](Cc1c[nH]c2ccccc12)NC(=O)CNC(=O)[C@H](CC(C)C)NC(=O)[C@H](Cc1ccc(OS(=O)(=O)O)cc1)NC(=O)[C@@H](N)CCC(=O)O)C(=O)N(C)[C@H](CC(=O)O)C(=O)N[C@@H](Cc1ccccc1)C(N)=O
notes: X = Nle or Nal

How the values were obtained:
[1] = molecular target: T1, human cholecystokinin-2 receptor (human, UniProt P32239 1-447); experiment: cell-based or functional assay
T1 sequence (looked up): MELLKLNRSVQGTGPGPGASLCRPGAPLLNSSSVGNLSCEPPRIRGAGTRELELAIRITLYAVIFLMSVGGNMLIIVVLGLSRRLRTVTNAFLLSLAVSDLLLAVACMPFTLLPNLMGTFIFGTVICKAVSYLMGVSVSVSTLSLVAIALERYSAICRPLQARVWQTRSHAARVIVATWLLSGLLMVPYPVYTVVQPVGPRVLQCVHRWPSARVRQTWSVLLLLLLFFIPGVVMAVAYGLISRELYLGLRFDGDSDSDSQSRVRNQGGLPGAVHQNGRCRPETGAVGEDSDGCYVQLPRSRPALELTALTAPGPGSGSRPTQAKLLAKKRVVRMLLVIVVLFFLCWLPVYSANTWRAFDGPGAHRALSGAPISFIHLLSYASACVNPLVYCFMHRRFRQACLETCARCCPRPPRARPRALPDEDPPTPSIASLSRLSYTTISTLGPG

[2] = molecular target: T2, human cholecystokinin-2 receptor (CCK-2R) (Homo sapiens, UniProt P32239); experiment: In vitro potency on CCK-2R, whole cell functional assay (IP1 accumulation, IP-One HTRF); type: cell-based
T2 construct: host or cells: 1321-N1 cells (plasma membranes prepared by Evotec AG Hamburg)
T2 sequence (P32239 1-447): T1 sequence (looked up)

[3] = 1321-N1 cells stably expressing CCK-2R, IP1 accumulation, highest dose tested 1×10^6 pM, read-out: EC50 (CCK-2R)

| Molecule | EC50 (CCK-2R) [1] [nM] | also measured |
| --- | --- | --- |
| 2-[2-[2-[[2-[2-[2-[[(4S)-4-Carboxy-4-(19-carboxynonadecanoylamino)butanoyl]amino]ethoxy]ethoxy]acetyl]amino]ethoxy]ethoxy]acetyl-Asp-Phe(4-sulfomethyl)-Leu-Gly-Trp-Nle-DMeAsp-MePhe-amide (peptide) | > 1000 |  |
| 2-[2-[2-[[2-[2-[2-[[(4S)-4-Carboxy-4-(17-carboxyheptadecanoylamino)butanoyl]amino]ethoxy]ethoxy]acetyl]amino]ethoxy]ethoxy]acetyl-Asp-Phe(4-sulfomethyl)-Nle-Gly-Trp-Nle-DMeAsp-MePhe-amide (peptide) | > 1000 |  |
| 2-[2-[2-[[2-[2-[2-[[(4S)-4-Carboxy-4-(13-carboxytridecanoylamino)butanoyl]amino]ethoxy]ethoxy]acetyl]amino]ethoxy]ethoxy]acetyl-Asp-Phe(4-sulfomethyl)-Leu-Gly-Trp-Nle-DMeAsp-MePhe-amide (peptide) | > 1000 |  |
| CCCC[C@H](NC(=O)[C@H](Cc1c[nH]c2ccccc12)NC(=O)CNC(=O)[C@H](CC(C)C)NC(=O)[C@H](Cc1ccc(OS(=O)(=O)O)cc1)NC(=O)[C@H](CCC(=O)O)NC(=O)COCCOCCNC(=O)COCCOCCNC(=O)CC[C@H](NC(=O)CCCCCCCCCCCCCCC(=O)O)C(=O)O)C(=O)N(C)[C@H](CC(=O)O)C(=O)N(C)[C@@H](Cc1ccccc1)C(N)=O [Example 39, 2-[2-[2-[[2-[2-[2-[[(4S)-4-Carboxy-4-(15-carboxypentadecanoylamino)butanoyl]amino]ethoxy]ethoxy]acetyl]amino]ethoxy]ethoxy]acetyl-Glu-sTyr-Leu-Gly-Trp-Nle-DMeAsp-MePhe-amide] ({C16 diacid-γGlu-AEEA-AEEA}-E[sY]LGW[Nle][dNMeD][NMeF]-NH2) |  | EC50 [2, 3]: 110 nM |
| 2-[2-[2-[[2-[2-[2-[[(4S)-4-Carboxy-4-(17-carboxyheptadecanoylamino)butanoyl]amino]ethoxy]ethoxy]acetyl]amino]ethoxy]ethoxy]acetyl-bAsp-Phe(4-sulfomethyl)-Nle-Gly-Trp-Nle-DMeAsp-MePhe-amide (peptide) | > 1000 |  |
| 2-[2-[2-[[2-[2-[2-[[(4S)-4-Carboxy-4-(17-carboxyheptadecanoylamino)butanoyl]amino]ethoxy]ethoxy]acetyl]amino]ethoxy]ethoxy]acetyl-DAsp-Phe(4-sulfomethyl)-Nle-Gly-Trp-Nle-DMeAsp-MePhe-amide (peptide) | > 1000 |  |
| CCCC[C@H](NC(=O)[C@H](Cc1c[nH]c2ccccc12)NC(=O)CNC(=O)[C@H](CC(C)C)NC(=O)[C@H](Cc1ccc(OS(=O)(=O)O)cc1)NC(=O)[C@@H](CCC(=O)O)NC(=O)COCCOCCNC(=O)COCCOCCNC(=O)CC[C@H](NC(=O)CCCCCCCCCCCCCCCCC(=O)O)C(=O)O)C(=O)N(C)[C@H](CC(=O)O)C(=O)N(C)[C@@H](Cc1ccccc1)C(N)=O [Example 49, 2-[2-[2-[[2-[2-[2-[[(4S)-4-Carboxy-4-(17-carboxyheptadecanoylamino)butanoyl]amino]ethoxy]ethoxy]acetyl]amino]ethoxy]ethoxy]acetyl-DGlu-sTyr-Leu-Gly-Trp-Nle-DMeAsp-MePhe-amide] ({C18 diacid-γGlu-AEEA-AEEA}-[dE][sY]LGW[Nle][dNMeD][NMeF]-NH2) |  | EC50 [2, 3]: 46 nM |
| CCCC[C@H](NC(=O)[C@H](Cc1c[nH]c2ccccc12)NC(=O)CNC(=O)[C@H](CC(C)C)NC(=O)[C@H](Cc1ccc(OS(=O)(=O)O)cc1)NC(=O)[C@@H](N)CC(=O)O)C(=O)N(C)[C@H](CC(=O)O)C(=O)N(C)[C@@H](Cc1ccccc1)C(N)=O [Example 60, Asp-sTyr-Leu-Gly-Trp-Nle-DMeAsp-MePhe-amide] |  | EC50 [2, 3]: 380 nM |
| CCCC[C@H](NC(=O)[C@H](Cc1c[nH]c2ccccc12)NC(=O)CNC(=O)[C@H](CC(C)C)NC(=O)[C@H](Cc1ccc(OS(=O)(=O)O)cc1)NC(=O)[C@H](CCC(=O)O)NC(=O)COCCOCCNC(=O)COCCOCCNC(=O)CC[C@H](NC(=O)CCCCCCCCCCCCC(=O)O)C(=O)O)C(=O)N(C)[C@H](CC(=O)O)C(=O)N(C)[C@@H](Cc1ccccc1)C(N)=O [Example 36, 2-[2-[2-[[2-[2-[2-[[(4S)-4-Carboxy-4-(13-carboxytridecanoylamino)butanoyl]amino]ethoxy]ethoxy]acetyl]amino]ethoxy]ethoxy]acetyl-Glu-sTyr-Leu-Gly-Trp-Nle-DMeAsp-MePhe-amide] ({C14 diacid-γGlu-AEEA-AEEA}-E[sY]LGW[Nle][dNMeD][NMeF]-NH2) |  | EC50 [2, 3]: 150 nM |
| DGlu-sTyr-Leu-Gly-Trp-Nle-DMeAsp-MePhe-amide (peptide) | > 1000 |  |
| 2-[2-[2-[[2-[2-[2-[[(4S)-4-Carboxy-4-(15-carboxypentadecanoylamino)butanoyl]amino]ethoxy]ethoxy]acetyl]amino]ethoxy]ethoxy]acetyl-Asp-Phe(4-sulfomethyl)-Leu-Gly-Trp-Nle-DMeAsp-MePhe-amide (peptide) | > 1000 |  |
| Asp-sTyr-His-Gly-Trp-Nle-DMeAsp-MePhe-amide (peptide) | > 1000 |  |
| Asp-sTyr-Leu-Gly-Trp-Nle-DMeAsp-Phe-amide (peptide) | > 1000 |  |
| Asp-sTyr-Ile-Gly-Trp-Nle-DMeAsp-MePhe-amide (peptide) | > 1000 |  |
| 2-[2-[2-[[2-[2-[2-[[(4S)-4-Carboxy-4-(17-carboxyheptadecanoylamino)butanoyl]amino]ethoxy]ethoxy]acetyl]amino]ethoxy]ethoxy]acetyl-DbAsp-Phe(4-sulfomethyl)-Nle-Gly-Trp-Nle-DMeAsp-MePhe-amide (peptide) | > 1000 |  |
| CCCC[C@H](NC(=O)[C@H](Cc1c[nH]c2ccccc12)NC(=O)CNC(=O)[C@H](CC(C)C)NC(=O)[C@H](Cc1ccc(OS(=O)(=O)O)cc1)NC(=O)[C@H](CC(=O)O)NC(=O)COCCOCCNC(=O)COCCOCCNC(=O)CC[C@H](NC(=O)CCCCCCCCCCCCCCCCC(=O)O)C(=O)O)C(=O)N(C)[C@H](CC(=O)O)C(=O)N(C)[C@@H](Cc1ccccc1)C(N)=O [Example 9, 2-[2-[2-[[2-[2-[2-[[(4S)-4-Carboxy-4-(17-carboxyheptadecanoylamino)butanoyl]amino]ethoxy]ethoxy]acetyl]amino]ethoxy]ethoxy]acetyl-Asp-sTyr-Leu-Gly-Trp-Nle-DMeAsp-MePhe-amide] |  | EC50 [2]: 170 nM |
| Asp-sTyr-Pro-Gly-Trp-Nle-DMeAsp-MePhe-amide (peptide) | > 1000 |  |
| CCCC[C@H](NC(=O)[C@H](Cc1ccc(OS(=O)(=O)O)cc1)NC(=O)[C@H](CC(=O)O)NC(=O)COCCOCCNC(=O)COCCOCCNC(=O)CC[C@H](NC(=O)CCCCCCCCCCCCCCCCC(=O)O)C(=O)O)C(=O)NCC(=O)N[C@@H](Cc1c[nH]c2ccccc12)C(=O)N[C@@H](CCCC)C(=O)N(C)[C@H](CC(=O)O)C(=O)N[C@@H](Cc1c[nH]c2ccccc12)C(N)=O [Example 1, 2-[2-[2-[[2-[2-[2-[[(4S)-4-Carboxy-4-(17-carboxyheptadecanoylamino)butanoyl]amino]ethoxy]ethoxy]acetyl]amino]ethoxy]ethoxy]acetyl-Asp-sTyr-Nle-Gly-Trp-Nle-DMeAsp-Trp-amide] ({C18 diacid-γGlu-AEEA-AEEA}-D[sY][Nle]GW[Nle][dNMeD]W-NH2) |  | EC50 [2, 3]: > 1000 nM |
| Asp-Phe(4-sulfomethyl)-Leu-Gly-Trp-Nle-DMeAsp-MePhe-amide (peptide) | > 1000 |  |
| CCCC[C@H](NC(=O)[C@H](Cc1c[nH]c2ccccc12)NC(=O)CNC(=O)[C@H](Cc1c[nH]cn1)NC(=O)[C@H](Cc1ccc(OS(=O)(=O)O)cc1)NC(=O)[C@H](CC(=O)O)NC(=O)COCCOCCNC(=O)COCCOCCNC(=O)CC[C@H](NC(=O)CCCCCCCCCCCCCCCCC(=O)O)C(=O)O)C(=O)N(C)[C@H](CC(=O)O)C(=O)N(C)[C@@H](Cc1ccccc1)C(N)=O [Example 48, 2-[2-[2-[[2-[2-[2-[[(4S)-4-Carboxy-4-(17-carboxyheptadecanoylamino)butanoyl]amino]ethoxy]ethoxy]acetyl]amino]ethoxy]ethoxy]acetyl-Asp-sTyr-His-Gly-Trp-Nle-DMeAsp-MePhe-amide] ({C18 diacid-γGlu-AEEA-AEEA}-D[sY]HGW[Nle][dNMeD][NMeF]-NH2) |  | EC50 [2, 3]: > 1000 nM |
| Asp-sTyr-Nle-Gly-Trp-Nle-DMeAsp-MePhe-amide (peptide) | > 1000 |  |
| Glu-sTyr-Leu-Gly-Trp-Nle-DMeAsp-MePhe-amide (peptide) | 920 |  |
| B1 | > 1000 |  |
| {C18 diacid-γGlu-AEEA-AEEA}-E[sY]LGWQ[dNMeD]F-NH2 | > 1000 |  |
| E[sY]LGWQ[dNMeD]F-NH2 [Glu-sTyr-Leu-Gly-Trp-Gln-DMeAsp-Phe-amide] | > 1000 |  |
